The values that follow come from article doi:10.1101/2024.12.09.627393.

For assay [1], the target named is H3Tetra^ac nucleosome (UniProt P68431). Kind of assay: AlphaScreen or HTRF; dCypher: GST-CECR2-BRD titrated against PTM-defined nucleosomes (10 nM); glutathione Acceptor and streptavidin Donor beads; 20 mM Tris pH 7.5, 250 mM NaCl, 0.01% NP-40, 0.01% BSA, 1 mM DTT; room temperature; relative EC50 (EC50^rel).
In assay [2] the target is H4Tetra^ac nucleosome (UniProt P68431). The assay is described as above.

pEC50: −log10 of the molar value.

Sequence of GST-CECR2-BRD (GST tag retained, for dCypher assays) (Q9BXF3 424-538): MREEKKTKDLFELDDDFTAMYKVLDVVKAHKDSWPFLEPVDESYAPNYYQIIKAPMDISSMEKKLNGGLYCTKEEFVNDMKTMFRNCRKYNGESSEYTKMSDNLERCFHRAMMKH

In the case of “GST-CECR2-BRD (GST tag retained, for dCypher assays) (from UniProt Q9BXF3-1 424-538) (domain or fragment)”, the pEC50 was 8.22 in assay [1] and 8.04 in assay [2].
